Consider 4 proteins from patent US20230183713A1, “SITE-SPECIFIC RECOMBINASES FOR EFFICIENT AND SPECIFIC GENOME EDITING” (TECHNISCHE UNIVERSITÄt DRESDEN, published 2023).

For series [1], the target named is T1, Cre recombinase monomer with Q311R mutation.
T1 chain: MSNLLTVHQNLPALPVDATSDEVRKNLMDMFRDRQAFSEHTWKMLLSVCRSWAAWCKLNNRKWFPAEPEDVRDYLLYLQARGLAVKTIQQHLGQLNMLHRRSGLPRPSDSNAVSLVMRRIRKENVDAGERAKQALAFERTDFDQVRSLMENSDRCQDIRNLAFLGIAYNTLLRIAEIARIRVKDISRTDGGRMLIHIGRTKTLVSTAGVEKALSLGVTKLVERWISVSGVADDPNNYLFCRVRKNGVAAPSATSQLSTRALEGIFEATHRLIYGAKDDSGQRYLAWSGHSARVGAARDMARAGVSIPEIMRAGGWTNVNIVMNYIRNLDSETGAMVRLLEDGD

Series [2] concerns the target T2, Cre recombinase monomer with Y324M mutation.
T2 chain: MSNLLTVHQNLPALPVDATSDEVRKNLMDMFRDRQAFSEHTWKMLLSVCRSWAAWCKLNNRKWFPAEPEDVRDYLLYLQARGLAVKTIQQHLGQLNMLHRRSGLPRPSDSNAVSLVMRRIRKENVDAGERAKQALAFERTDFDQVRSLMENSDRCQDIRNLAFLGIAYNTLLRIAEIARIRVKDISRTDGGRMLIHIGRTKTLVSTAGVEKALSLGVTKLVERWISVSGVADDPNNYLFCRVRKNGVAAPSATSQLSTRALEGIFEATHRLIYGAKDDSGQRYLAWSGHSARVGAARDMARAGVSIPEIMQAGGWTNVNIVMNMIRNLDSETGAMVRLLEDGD

In series [3] the target is T3, Cre recombinase monomer with E176M mutation.
T3 chain: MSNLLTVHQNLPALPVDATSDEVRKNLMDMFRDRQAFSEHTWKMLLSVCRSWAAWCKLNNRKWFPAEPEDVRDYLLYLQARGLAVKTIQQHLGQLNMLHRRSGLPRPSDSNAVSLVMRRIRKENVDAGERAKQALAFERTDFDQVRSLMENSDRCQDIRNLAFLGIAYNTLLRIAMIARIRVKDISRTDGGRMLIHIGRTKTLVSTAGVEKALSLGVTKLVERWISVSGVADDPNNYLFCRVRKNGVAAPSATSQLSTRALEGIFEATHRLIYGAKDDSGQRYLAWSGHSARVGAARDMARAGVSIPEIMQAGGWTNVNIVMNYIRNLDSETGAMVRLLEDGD

For series [4], the target named is T4, Cre recombinase monomer with E176H mutation.
T4 chain: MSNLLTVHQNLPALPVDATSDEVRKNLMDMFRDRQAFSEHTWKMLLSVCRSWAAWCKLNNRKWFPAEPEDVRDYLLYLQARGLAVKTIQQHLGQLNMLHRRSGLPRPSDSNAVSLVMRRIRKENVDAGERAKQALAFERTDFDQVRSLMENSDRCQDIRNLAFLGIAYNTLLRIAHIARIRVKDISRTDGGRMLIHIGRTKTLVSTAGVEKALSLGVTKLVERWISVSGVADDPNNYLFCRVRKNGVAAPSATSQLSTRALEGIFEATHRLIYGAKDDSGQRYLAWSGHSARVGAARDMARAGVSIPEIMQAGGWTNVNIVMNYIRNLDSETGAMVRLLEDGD

Series [5] has as its target T5, Cre recombinase monomer with Y324V mutation.
T5 chain: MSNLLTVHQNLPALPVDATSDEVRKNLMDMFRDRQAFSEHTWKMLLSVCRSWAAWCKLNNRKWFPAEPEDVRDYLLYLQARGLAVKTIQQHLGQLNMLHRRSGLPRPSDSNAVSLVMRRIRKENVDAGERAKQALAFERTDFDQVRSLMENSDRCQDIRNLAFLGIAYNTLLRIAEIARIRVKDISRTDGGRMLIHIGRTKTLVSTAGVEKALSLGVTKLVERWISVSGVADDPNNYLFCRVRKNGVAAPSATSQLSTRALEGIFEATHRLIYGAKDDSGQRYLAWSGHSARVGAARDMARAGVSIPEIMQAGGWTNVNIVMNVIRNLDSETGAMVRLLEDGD

B1: Cre recombinase monomer with R292Y mutation (protein)
chain: MSNLLTVHQNLPALPVDATSDEVRKNLMDMFRDRQAFSEHTWKMLLSVCRSWAAWCKLNNRKWFPAEPEDVRDYLLYLQARGLAVKTIQQHLGQLNMLHRRSGLPRPSDSNAVSLVMRRIRKENVDAGERAKQALAFERTDFDQVRSLMENSDRCQDIRNLAFLGIAYNTLLRIAEIARIRVKDISRTDGGRMLIHIGRTKTLVSTAGVEKALSLGVTKLVERWISVSGVADDPNNYLFCRVRKNGVAAPSATSQLSTRALEGIFEATHRLIYGAKDDSGQRYLAWSGHSAYVGAARDMARAGVSIPEIMQAGGWTNVNIVMNYIRNLDSETGAMVRLLEDGD
As to B1, the “Median dimer activity (recombination on loxP)” value (shortened to “Median dimer activity”) in series [1] came out at 96%; in series [2], 90%.

B2: Cre recombinase monomer with R173C mutation (protein)
chain: MSNLLTVHQNLPALPVDATSDEVRKNLMDMFRDRQAFSEHTWKMLLSVCRSWAAWCKLNNRKWFPAEPEDVRDYLLYLQARGLAVKTIQQHLGQLNMLHRRSGLPRPSDSNAVSLVMRRIRKENVDAGERAKQALAFERTDFDQVRSLMENSDRCQDIRNLAFLGIAYNTLLCIAEIARIRVKDISRTDGGRMLIHIGRTKTLVSTAGVEKALSLGVTKLVERWISVSGVADDPNNYLFCRVRKNGVAAPSATSQLSTRALEGIFEATHRLIYGAKDDSGQRYLAWSGHSARVGAARDMARAGVSIPEIMQAGGWTNVNIVMNYIRNLDSETGAMVRLLEDGD
Turning to B2, the “Median dimer activity” value in series [1] is 91%; in series [3], 27%; in series [4], 65%.

B3: Cre recombinase monomer with W315G mutation (protein)
chain: MSNLLTVHQNLPALPVDATSDEVRKNLMDMFRDRQAFSEHTWKMLLSVCRSWAAWCKLNNRKWFPAEPEDVRDYLLYLQARGLAVKTIQQHLGQLNMLHRRSGLPRPSDSNAVSLVMRRIRKENVDAGERAKQALAFERTDFDQVRSLMENSDRCQDIRNLAFLGIAYNTLLRIAEIARIRVKDISRTDGGRMLIHIGRTKTLVSTAGVEKALSLGVTKLVERWISVSGVADDPNNYLFCRVRKNGVAAPSATSQLSTRALEGIFEATHRLIYGAKDDSGQRYLAWSGHSARVGAARDMARAGVSIPEIMQAGGGTNVNIVMNYIRNLDSETGAMVRLLEDGD
On to B3, for which the results for the “Median dimer activity” value in series [5] and in series [2] were 37% and 35%, respectively.

B4: Cre recombinase monomer with R173Q mutation (protein)
chain: MSNLLTVHQNLPALPVDATSDEVRKNLMDMFRDRQAFSEHTWKMLLSVCRSWAAWCKLNNRKWFPAEPEDVRDYLLYLQARGLAVKTIQQHLGQLNMLHRRSGLPRPSDSNAVSLVMRRIRKENVDAGERAKQALAFERTDFDQVRSLMENSDRCQDIRNLAFLGIAYNTLLQIAEIARIRVKDISRTDGGRMLIHIGRTKTLVSTAGVEKALSLGVTKLVERWISVSGVADDPNNYLFCRVRKNGVAAPSATSQLSTRALEGIFEATHRLIYGAKDDSGQRYLAWSGHSARVGAARDMARAGVSIPEIMQAGGWTNVNIVMNYIRNLDSETGAMVRLLEDGD
Turning to B4, the entries for the “Median dimer activity” value in series [1] and in series [3] were 92% and 32%, respectively.
